Test results taken from patent US20220135638A1 (Takeda / Millennium, published 2022).
Numbered stars: 1 amine (or outer) side, 2 acyl side, 3 side chain; on linkers, the order of the positions; unused ones are H or OH. Square brackets hold non-standard residues; d marks the D form. Primed or numbered codes have the meaning given here. Side chains are listed from the residue outwards. Ends that are not written are not given here. * marks the point of attachment. C20 diacid = O=C(O)CCCCCCCCCCCCCCCCCCC(=O)*; C18 diacid = O=C(O)CCCCCCCCCCCCCCCCC(=O)*; C16 diacid = O=C(O)CCCCCCCCCCCCCCC(=O)*; γGlu = O=C(O)[C@H](CCC(=O)[*:2])N[*:1]; Iva = CC[C@](C)(N)C(=O)O; PEG3′ = not defined here; Aib = CC(C)(N)C(=O)O

How the values were obtained:
[1] = biological target: T1, full-length human GIPR (GenBank NM_000164) with an N-terminal FLAG tag on HEK-293T cells (human), P48546; assay: cell-based or functional assay
T1 chain: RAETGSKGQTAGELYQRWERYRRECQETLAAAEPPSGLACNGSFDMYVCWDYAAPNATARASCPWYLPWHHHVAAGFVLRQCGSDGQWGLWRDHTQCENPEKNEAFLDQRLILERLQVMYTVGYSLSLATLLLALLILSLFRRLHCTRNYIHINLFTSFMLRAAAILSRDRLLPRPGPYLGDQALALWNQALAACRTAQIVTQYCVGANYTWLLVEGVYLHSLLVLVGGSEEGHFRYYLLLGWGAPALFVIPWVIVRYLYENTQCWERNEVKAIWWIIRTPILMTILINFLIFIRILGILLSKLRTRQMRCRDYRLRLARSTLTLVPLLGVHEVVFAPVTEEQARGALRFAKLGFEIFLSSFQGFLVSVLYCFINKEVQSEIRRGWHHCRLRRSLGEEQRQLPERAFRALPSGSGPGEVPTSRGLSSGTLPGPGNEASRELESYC

[2] = biological target: T2, full-length human GLP-1R (GenBank NM_002062) with an N-terminal FLAG tag on HEK-293T cells (human), P43220; assay: cell-based or functional assay
T2 chain: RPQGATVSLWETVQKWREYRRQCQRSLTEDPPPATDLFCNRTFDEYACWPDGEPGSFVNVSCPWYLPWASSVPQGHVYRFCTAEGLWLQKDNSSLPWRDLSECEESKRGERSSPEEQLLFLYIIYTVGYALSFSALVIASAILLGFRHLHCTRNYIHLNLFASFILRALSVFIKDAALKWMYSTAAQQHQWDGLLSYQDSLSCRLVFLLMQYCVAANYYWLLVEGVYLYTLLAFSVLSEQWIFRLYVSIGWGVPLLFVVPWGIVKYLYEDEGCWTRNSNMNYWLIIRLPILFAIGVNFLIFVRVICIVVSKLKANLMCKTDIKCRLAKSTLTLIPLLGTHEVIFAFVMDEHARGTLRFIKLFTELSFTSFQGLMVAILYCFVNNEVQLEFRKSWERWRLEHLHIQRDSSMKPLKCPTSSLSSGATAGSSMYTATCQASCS

B1: Compound No. 529 (peptide)
peptide: Y[Aib]EGTFISDYSIALDR[Aib]HQ[Aib]NFVNW[Iva]LAQRPSSGAPK([PEG3′-γGlu-C20 diacid])PS
modifications: ends and bridges not checked
- GIP EC50(pM) [1]: 1.3 pM
- GLP EC50 [2]: > 1000 nM

B2: Compound No. 531 (peptide)
peptide: Y[Aib]EGTFISDYSIALDR[Aib]HQ[Aib]NFVNW[Iva]LAQRPSSGAPPK([PEG3′-γGlu-C18 diacid])S
modifications: ends and bridges not checked
- GIP EC50(pM) [1]: 1.02 pM
- GLP EC50 [2]: > 1000 nM

B3: Compound No. 511 (peptide)
peptide: Y[Aib]EGTFISDYSIALDR[Aib]HQ[Aib]NFVNW[Iva]LAQRK([PEG3′-γGlu-C20 diacid])SSGAPPPS
modifications: ends and bridges not checked
- GIP EC50(pM) [1]: 1.61 pM
- GLP EC50 [2]: > 1000 nM

B4: Compound No. 530 (peptide)
peptide: Y[Aib]EGTFISDYSIALDR[Aib]HQ[Aib]NFVNW[Iva]LAQRPSSGAPPK([PEG3′-γGlu-C16 diacid])S
modifications: ends and bridges not checked
- GIP EC50(pM) [1]: 0.36 pM
- GLP EC50 [2]: > 1000 nM

B5: Compound No. 522 (peptide)
peptide: Y[Aib]EGTFISDYSIALDR[Aib]HQ[Aib]NFVNW[Iva]LAQRPSSGK([PEG3′-γGlu-C18 diacid])PPPS
modifications: ends and bridges not checked
- GIP EC50(pM) [1]: 1.51 pM
- GLP EC50 [2]: > 1000 nM

B6: Compound No. 517 (peptide)
peptide: Y[Aib]EGTFISDYSIALDR[Aib]HQ[Aib]NFVNW[Iva]LAQRPSK([PEG3′-γGlu-C20 diacid])GAPPPS
modifications: ends and bridges not checked
- GIP EC50(pM) [1]: 1.99 pM
- GLP EC50 [2]: > 1000 nM

B7: Compound No. 524 (peptide)
peptide: Y[Aib]EGTFISDYSIALDR[Aib]HQ[Aib]NFVNW[Iva]LAQRPSSGAK([PEG3′-γGlu-C16 diacid])PPS
modifications: ends and bridges not checked
- GIP EC50(pM) [1]: 1.29 pM
- GLP EC50 [2]: > 1000 nM

B8: Compound No. 532 (peptide)
peptide: Y[Aib]EGTFISDYSIALDR[Aib]HQ[Aib]NFVNW[Iva]LAQRPSSGAPPK([PEG3′-γGlu-C20 diacid])S
modifications: ends and bridges not checked
- GIP EC50(pM) [1]: 2.05 pM
- GLP EC50 [2]: > 1000 nM

B9: Compound No. 528 (peptide)
peptide: Y[Aib]EGTFISDYSIALDR[Aib]HQ[Aib]NFVNW[Iva]LAQRPSSGAPK([PEG3′-γGlu-C18 diacid])PS
modifications: ends and bridges not checked
- GIP EC50(pM) [1]: 0.87 pM
- GLP EC50 [2]: > 1000 nM

B10: Compound No. 514 (peptide)
peptide: Y[Aib]EGTFISDYSIALDR[Aib]HQ[Aib]NFVNW[Iva]LAQRPK([PEG3′-γGlu-C20 diacid])SGAPPPS
modifications: ends and bridges not checked
- GIP EC50(pM) [1]: 1.14 pM
- GLP EC50 [2]: > 1000 nM

B11: Compound No. 526 (peptide)
peptide: Y[Aib]EGTFISDYSIALDR[Aib]HQ[Aib]NFVNW[Iva]LAQRPSSGAK([PEG3′-γGlu-C20 diacid])PPS
modifications: ends and bridges not checked
- GIP EC50(pM) [1]: 1.5 pM
- GLP EC50 [2]: > 1000 nM

B12: Compound No. 515 (peptide)
peptide: Y[Aib]EGTFISDYSIALDR[Aib]HQ[Aib]NFVNW[Iva]LAQRPSK([PEG3′-γGlu-C16 diacid])GAPPPS
modifications: ends and bridges not checked
- GIP EC50(pM) [1]: 0.54 pM
- GLP EC50 [2]: > 1000 nM

B13: Compound No. 513 (peptide)
peptide: Y[Aib]EGTFISDYSIALDR[Aib]HQ[Aib]NFVNW[Iva]LAQRPK([PEG3′-γGlu-C18 diacid])SGAPPPS
modifications: ends and bridges not checked
- GIP EC50(pM) [1]: 0.5 pM
- GLP EC50 [2]: > 1000 nM

B14: Compound No. 520 (peptide)
peptide: Y[Aib]EGTFISDYSIALDR[Aib]HQ[Aib]NFVNW[Iva]LAQRPSSK([PEG3′-γGlu-C20 diacid])APPPS
modifications: ends and bridges not checked
- GIP EC50(pM) [1]: 2.68 pM
- GLP EC50 [2]: > 1000 nM

B15: Compound No. 523 (peptide)
peptide: Y[Aib]EGTFISDYSIALDR[Aib]HQ[Aib]NFVNW[Iva]LAQRPSSGK([PEG3′-γGlu-C20 diacid])PPPS
modifications: ends and bridges not checked
- GIP EC50(pM) [1]: 2.98 pM
- GLP EC50 [2]: > 1000 nM

B16: Compound No. 535 (peptide)
peptide: Y[Aib]EGTFISDYSIALDR[Aib]HQ[Aib]NFVNW[Iva]LAQRPSSGAPPPK([PEG3′-γGlu-C20 diacid])
modifications: ends and bridges not checked
- GIP EC50(pM) [1]: 1.54 pM
- GLP EC50 [2]: > 1000 nM

B17: Compound No. 533 (peptide)
peptide: Y[Aib]EGTFISDYSIALDR[Aib]HQ[Aib]NFVNW[Iva]LAQRPSSGAPPPK([PEG3′-γGlu-C16 diacid])
modifications: ends and bridges not checked
- GIP EC50(pM) [1]: 0.59 pM
- GLP EC50 [2]: 776 nM

B18: Compound No. 510 (peptide)
peptide: Y[Aib]EGTFISDYSIALDR[Aib]HQ[Aib]NFVNW[Iva]LAQRK([PEG3′-γGlu-C18 diacid])SSGAPPPS
modifications: ends and bridges not checked
- GIP EC50(pM) [1]: 0.83 pM
- GLP EC50 [2]: > 1000 nM

B19: Compound No. 509 (peptide)
peptide: Y[Aib]EGTFISDYSIALDR[Aib]HQ[Aib]NFVNW[Iva]LAQRK([PEG3′-γGlu-C16 diacid])SSGAPPPS
modifications: ends and bridges not checked
- GIP EC50(pM) [1]: 0.54 pM
- GLP EC50 [2]: > 1000 nM

B20: Compound No. 525 (peptide)
peptide: Y[Aib]EGTFISDYSIALDR[Aib]HQ[Aib]NFVNW[Iva]LAQRPSSGAK([PEG3′-γGlu-C18 diacid])PPS
modifications: ends and bridges not checked
- GIP EC50(pM) [1]: 0.82 pM
- GLP EC50 [2]: > 1000 nM

B21: Compound No. 518 (peptide)
peptide: Y[Aib]EGTFISDYSIALDR[Aib]HQ[Aib]NFVNW[Iva]LAQRPSSK([PEG3′-γGlu-C16 diacid])APPPS
modifications: ends and bridges not checked
- GIP EC50(pM) [1]: 0.61 pM
- GLP EC50 [2]: > 1000 nM

B22: Compound No. 505 (peptide)
peptide: Y[Aib]EGTFISDYSIALDR[Aib]HQ[Aib]NFVNW[Iva]LAQRPSSGAPK([PEG3′-PEG3′-γGlu-C20 diacid])PS
modifications: ends and bridges not checked
- GIP EC50(pM) [1]: 2.11 pM
- GLP EC50 [2]: > 1000 nM

B23: Compound No. 534 (peptide)
peptide: Y[Aib]EGTFISDYSIALDR[Aib]HQ[Aib]NFVNW[Iva]LAQRPSSGAPPPK([PEG3′-γGlu-C18 diacid])
modifications: ends and bridges not checked
- GIP EC50(pM) [1]: 0.81 pM
- GLP EC50 [2]: > 1000 nM

B24: Compound No. 527 (peptide)
peptide: Y[Aib]EGTFISDYSIALDR[Aib]HQ[Aib]NFVNW[Iva]LAQRPSSGAPK([PEG3′-γGlu-C16 diacid])PS
modifications: ends and bridges not checked
- GIP EC50(pM) [1]: 0.37 pM
- GLP EC50 [2]: 479 nM

B25: Compound No. 512 (peptide)
peptide: Y[Aib]EGTFISDYSIALDR[Aib]HQ[Aib]NFVNW[Iva]LAQRPK([PEG3′-γGlu-C16 diacid])SGAPPPSS
modifications: ends and bridges not checked
- GIP EC50(pM) [1]: 0.53 pM
- GLP EC50 [2]: 126 nM

B26: Compound No. 521 (peptide)
peptide: Y[Aib]EGTFISDYSIALDR[Aib]HQ[Aib]NFVNW[Iva]LAQRPSSGK([PEG3′-γGlu-C16 diacid])PPPS
modifications: ends and bridges not checked
- GIP EC50(pM) [1]: 0.9 pM
- GLP EC50 [2]: > 1000 nM

B27: Compound No. 519 (peptide)
peptide: Y[Aib]EGTFISDYSIALDR[Aib]HQ[Aib]NFVNW[Iva]LAQRPSSK([PEG3′-γGlu-C18 diacid])APPPS
modifications: ends and bridges not checked
- GIP EC50(pM) [1]: 1.26 pM
- GLP EC50 [2]: > 1000 nM

B28: Compound No. 516 (peptide)
peptide: Y[Aib]EGTFISDYSIALDR[Aib]HQ[Aib]NFVNW[Iva]LAQRPSK([PEG3′-γGlu-C18 diacid])GAPPPS
modifications: ends and bridges not checked
- GIP EC50(pM) [1]: 1.02 pM
- GLP EC50 [2]: > 1000 nM
